# Data: ChEMBL document CHEMBL1154924, “Carbonic anhydrase activators: Activation of the beta-carbonic anhydrase from the pathogenic yeast Candida glabrata with amines and amino acids” (Bioorg Med Chem Lett, 2010)
# Assays:
# [1] = substrate: NCCc1c[nH]cn1; details: Methanothermobacter thermautotrophicus
# Description: Activity at archaea Methanobacterium thermoautotrophicum recombinant carbonic anhydrase
# [2] = substrate: NCCc1c[nH]cn1; details: Nakaseomyces glabratus
# Description: Activity at Candida glabrata recombinant carbonic anhydrase
# [3] = substrate: NCCc1c[nH]cn1; details: Saccharomyces cerevisiae
# Description: Activity at Saccharomyces cerevisiae recombinant Nce103p
protein,measurement,setting,value
"Carbonic anhydrase (Methanobacterium thermoautotrophicum), Q50565 (protein) MRFVSMIIKDILRENQDFRFRDLSDLKHSPKLCIITCMDSRLIDLLERALGIGRGDAKVIKNAGNIVDDGVIRSAAVAIYALGVNEIIIVGHTDCGMARLDEDLIVSRMRELGVEEEVIENFSIDVLNPVGDEEENVIEGVKRLKSSPLIPESIGVHGLIIDINTGRLKPLYLDED",Km,[1],1700 µM
"Carbonic anhydrase (Candida glabrata CBS 138), Q6FTL6 (protein) MTKDTIFTLTGKCALDNILDANRQWAQAMHRSQPQLFPTNGQGQDPHTLFIGCSDSRYNEDCLGVLPGEIFTLKTVANICHTDDHSLLATLEFAILNLKVNRIILCGHTDCGGIKTCLLGRESIKESCPHLYEHLDDIEDLVESHESELNQLDNICSKSKLMSHRNVERQLQRLLQIPVVQDALRNSNQDHEFNIFGLVYNVDSGLVDVVREVYGNQQK",Km,[2],7.9 mM
"Carbonic anhydrase (Saccharomyces cerevisiae S288c), P53615 (protein) MSATESSSIFTLSHNSNLQDILAANAKWASQMNNIQPTLFPDHNAKGQSPHTLFIGCSDSRYNENCLGVLPGEVFTWKNVANICHSEDLTLKATLEFAIICLKVNKVIICGHTDCGGIKTCLTNQREALPKVNCSHLYKYLDDIDTMYHEESQNLIHLKTQREKSHYLSHCNVKRQFNRIIENPTVQTAVQNGELQVYGLLYNVEDGLLQTVSTYTKVTPK",Km,[3],9.5 mM
